Experimental data reported in the supplement of paper PMC9170038.

Legend:
[1] = tested on: MS2 coat protein; assay: apparent KD of MS2 coat protein, switch ON state; designed switch direction (-1 OFF switch, 1 ON switch): -1; higher = weaker reporter binding; conditions: FMN input: 0 or 200 uM; Eterna round: R93 (includes R88 designs)
In short: (§1)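 SNAP-549-labelled MS2 coat protein was titrated onto designed RNA switches that had been transcribed on-chip from Illumina sequencing clusters. Amounts doubled from 0.7 or 1.5 nM to 3 µM in 100 mM Tris-HCl pH 7.5, 80 mM KCl, 4 mM MgCl2, with constant ligand or without. Apparent KD is the median per design of normalised cluster binding-curve fits.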

[2] = tested on: MS2 coat protein; assay: apparent KD of MS2 coat protein, switch OFF state (with FMN for OFF switches, without FMN for ON switches); designed switch direction (-1 OFF switch, 1 ON switch): -1; higher = weaker reporter binding; conditions: FMN input: 0 or 200 uM; Eterna round: R93 (includes R88 designs)
In short: as §1

Sequence	apparent KD of MS2 coat protein [1] [nM]	apparent KD of MS2 coat protein [2] [nM]
CUCUUGUCAGGAUAUAGAAGAAAAGAAAAGAAAGAAAAGAACUAGAAGGGACAUGAGGAUCACCCAUGUAAGAA [EteRNA is fun!]	87.5	62.9
CUCUUGUCAGGAUAUCUAAGAAAAGAAGAGAAAGAAAAGAAAGAGAAGGGACAUGAGGAUCACCCAUGUAAGAA [EteRNA is fun!]	59.3	32.4
CUCUUGUCAGGAUAUGUAAGAAAAGAAGAGAAAGAAAAGAAACAGAAGGGACAUGAGGAUCACCCAUGUAAGAA [EteRNA is fun!]	66.4	77
CUCUUGUGAGGAUAUCCAUGAAAUGAAGUGAAAGAAAAGAAGGAGAAGGCACAUGAGGAUCACCCAUGUUAGAA [EteRNA is fun!]	49.6	24.3
CUUAUGUAAGGAUAUCAGUAGUAAAAAAAUAAAAUUACUACUGAGAAGGUACAUGAGGAUCACCCAUGUCCGGG [EX4 375: Super Stable 75]	74.3	24.7
GAAAAACAUGAGGAUCACCCAUGUAAGGAUAUGCGAAAAUAAAAUAAAAUAAAAUAAAGCAGAAGGUACAAAAA [Mat - Exclusion 1 - Eli mod - D1]	29.5	40.5
GAAAAACAUGAGGAUCACCCAUGUAAGGAUAUGCUAAAAAACACGGAAAAACGUGAUAGCAGAAGGUACAAAAA [Mat - Exclusion 1 - Eli mod - D89]	24.1	36.5
GAAAAACAUGAGGAUCACCCAUGUAAGGAUAUGCUAAAAAACACGGAAAACGUGAAUAGCAGAAGGUACAAAAA [Mat - Exclusion 1 - Eli mod - D86]	20.6	23.6
GAAAAACAUGAGGAUCACCCAUGUAAGGAUAUGCUAAAAAACACGGAAAACGUGAAUAGCAGAAGGUACAAAAG [Mat - Exclusion 1 - Eli mod - D85]	25	46.8
GAAAAACAUGAGGAUCACCCAUGUAAGGAUAUGCUGAAAAACACGGAAAAAACGUGCAGCAGAAGGUACAAAAG [Mat - Exclusion 1 - Eli mod - D91]	16.7	131
GAAAAACAUGAGGAUCACCCAUGUAAGGAUAUGCUGAAAAACACGGAAAAACGUGACAGCAGAAGGUACAAAAG [Mat - Exclusion 1 - Eli mod - D94]	18.3	40
GAAAACCUAGGAUAUACAUGAGGAUCACCCAUGUCAGUAGACUGGGUAAGGUCUCUCAGUAGAAGGAGGACCCA [Ratilein]	315	318
GAAAACUGAGGAUAUACUUUGGGAAAAGAAAAGAUGAUGUUACAUGAGGAUCACCCAUGUAGAAGGCAGAAAAA [Default title]	26.4	39.4
GAAAAGCAAGGAUAUACAUGAGGAUCACCCAUGUAACCUGAAAGCAUGAUCGGUGACAGUAGAAGGUGCGAAAU [Tixegerice]	22.3	56.9
GAAAAGCAAGGAUAUACAUGAGGAUCACCCAUGUGGAAUGGCGUGACCUAAAGAAAAGGUAGAAGGUGCACGUG [Soangebi]	166	341
GAAAAGUCAGGAUAUGCGAAGGCGUCUGAUAGACGAGGCUAGCAGAAGGGACAUGAGGAUCACCCAUGUGGAAG [Mat - Exclusion 4 - Eli mod - D90]	76.5	157
